Measured values reported in US20170240629A1 (Hoffmann-La Roche, published 2017).

Tests used:
[1] = target: T1, human IL-1beta (human, UniProt P01584 117-269); assay: SPR inhibition; 10 nM human IL-1beta pre-incubated with antibody, injected over immobilised human IL-1RI (competitor)
Method: All experiments were performed at 25° C. using HBS-P (10 mM His, 140 mM NaCl, 0.05% Tween 20 pH 7.4) as running and dilution buffer. Human IL-1RI was immobilized on a Series S CM5 Sensor Chip (GE Healthcare) using standard amine coupling chemistry. […] The surface was regenerated by injecting 10 mM NaOH for 60 sec at a flow rate of 5 μl/min. Bulk refractive index differences were corrected by subtracting the response obtained from a mock surface.

[2] = target: T2, cynomolgus IL-1beta (cynomolgus, UniProt P79182 117-268); assay: ELISA, cynomolgus IL-1beta coated, Example 5
Method: (§1) The binding analysis was carried out using an enzyme-linked immunosorbent assay (ELISA)-based technology. […] The EC₅₀ was calculated with a four parameter logistic model using GraphPad Prism 6.0 software.

[3] = target: T2, cynomolgus IL-1beta; assay: SPR (BIAcore); antibody captured by anti-Fc, IL-1beta injected
Method: (§2) All experiments were performed at 25° C. using HBS-P (10 mM His, 140 mM NaCl, 0.05% Tween 20 pH 7.4) as running and dilution buffer. Anti-human or anti-mouse Fc antibodies were immobilized on a Series S CM5 Sensor Chip (GE Healthcare) using standard amine coupling chemistry. […] The dissociation phase was monitored for 600 sec by washing with running buffer. […] The surface was regenerated by injecting 3 M MgCl2 (for anti-human Fc antibody) or 10 mM Glycine pH 1.5 (for anti-mouse Fc antibody) for 60 sec at a flow rate of 5 μl/min. Bulk refractive index differences were corrected by subtracting the response obtained from a mock surface. Blank injections were subtracted (double referencing). The derived curves were fitted to a 1:1 Langmuir binding model using the BIAevaluation software.

[4] = target: T1, human IL-1beta; assay: cell-based or functional assay
[5] = target: T3, His-tagged human IL-1beta (human, UniProt P01584 117-269); assay: ELISA, His-tagged human IL-1beta coated, Example 4 variant 2
T3 construct: also called human His-tagged IL-1beta protein (Sino Biologics 10139-H07E); not shown: His tag

[6] = target: T3, His-tagged human IL-1beta; assay: ELISA, His-tagged human IL-1beta coated, Example 4 variant 2; based on MW 150 kDa
Method: as §1

[7] = target: T1, human IL-1beta; assay: cell-based or functional assay; remark: listed apart in the source
[8] = target: rabbit IL-1beta (rabbit, UniProt P14628 117-268, limits assumed); assay: SPR (BIAcore)
Sequence of rabbit IL-1beta (P14628 117-268 limits assumed): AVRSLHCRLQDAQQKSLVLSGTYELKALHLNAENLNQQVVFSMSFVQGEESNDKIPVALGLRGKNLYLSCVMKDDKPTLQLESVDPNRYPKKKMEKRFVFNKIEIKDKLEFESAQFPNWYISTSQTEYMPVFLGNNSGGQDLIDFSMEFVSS

[9] = target: T1, human IL-1beta; assay: SPR (BIAcore); antibody captured by anti-Fc, IL-1beta injected
Method: as §2

[10] = target: T1, human IL-1beta; assay: cell-based or functional assay; remark: listed apart in the source
[11] = target: T3, His-tagged human IL-1beta; assay: competition ELISA, His-tagged IL-1beta coated; competitor Fc-tagged human IL-1 receptor type I (Example 7); IL-1beta receptor I (example 7)
Method: (§3) The IC₅₀ was calculated with a four parameter logistic model using GraphPad Prism 6.0 software.

[12] = target: T1, human IL-1beta; assay: ELISA, human IL-1beta (Peprotech) coated, Example 4 variant 1
Method: as §1

[13] = target: T3, His-tagged human IL-1beta; assay: competition ELISA, His-tagged IL-1beta coated; competitor Fc-tagged human IL-1 receptor type II (Example 8); IL-1beta receptor II (example 8)
Method: as §3

[14] = target: T4, murine IL-1beta (murine, UniProt P10749 118-269); assay: ELISA, murine IL-1beta coated, Example 6
T4 sequence (P10749 118-269 limits assumed): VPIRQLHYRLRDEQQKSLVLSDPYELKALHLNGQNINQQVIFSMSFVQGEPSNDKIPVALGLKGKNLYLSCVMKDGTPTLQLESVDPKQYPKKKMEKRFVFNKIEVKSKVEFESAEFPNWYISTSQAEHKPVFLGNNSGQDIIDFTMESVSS
Method: as §1

[15] = target: T3, His-tagged human IL-1beta; assay: competition ELISA, His-tagged IL-1beta coated; competitor Fc-tagged human IL-1 receptor type I (Example 7); based on MW 150 kDa
Method: as §3

[16] = target: rat IL-1beta (rat, UniProt Q63264 117-268); assay: SPR (BIAcore); antibody captured by anti-Fc, IL-1beta injected
Sequence of rat IL-1beta (Q63264 117-268 limits assumed): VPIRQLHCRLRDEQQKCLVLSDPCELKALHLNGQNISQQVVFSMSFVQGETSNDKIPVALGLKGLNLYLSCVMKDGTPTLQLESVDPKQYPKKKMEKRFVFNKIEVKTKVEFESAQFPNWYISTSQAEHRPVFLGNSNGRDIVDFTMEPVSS
Method: as §2

[17] = target: T3, His-tagged human IL-1beta; assay: competition ELISA, His-tagged IL-1beta coated; competitor Fc-tagged human IL-1 receptor type II (Example 8); based on MW 150 kDa
Method: as §3

[18] = target: T1, human IL-1beta; assay: ELISA, human IL-1beta (Peprotech) coated, Example 4 variant 1; based on MW 150 kDa
Method: as §1

[19] = target: T4, murine IL-1beta; assay: SPR (BIAcore); antibody captured by anti-Fc, IL-1beta injected
Method: as §2

[20] = target: T2, cynomolgus IL-1beta; assay: ELISA, cynomolgus IL-1beta coated, Example 5; based on MW 150 kDa
Method: as §1

[21] = target: T4, murine IL-1beta; assay: ELISA, murine IL-1beta coated, Example 6; based on MW 150 kDa
Method: as §1

IC50 [1]: 2.5 nM | EC50 [2]: 0.0213 µg/mL | Kd [3]: 0.08 nM | koff [3]: 9.5e-05 s⁻¹ | kon [3]: 1.15e+06 M⁻¹ s⁻¹ | EC50, reduction of IL-6 expression upon IL-1beta stimulation of A549 cells [4]: 1.09 nM | EC50 [5]: 0.0152 µg/mL | EC50 [6]: 0.101 nM | IC50, inhibition of ICAM-1 expression upon IL-1beta stimulation of A549 cells [7]: 0.7 nM | Kd [8]: 1.4 nM | Kd [9]: 0.07 nM | koff [9]: 7.5e-05 s⁻¹ | kon [9]: 1.12e+06 M⁻¹ s⁻¹ | IC50, inhibition of ICAM-1 expression upon IL-1beta stimulation of HUVEC cells [10]: 16.5 nM | IC50 [11]: 0.231 µg/mL | EC50 [12]: 0.034 µg/mL | IC50 [13]: 0.132 µg/mL | EC50 [14]: 0.0231 µg/mL | IC50 [15]: 1.54 nM | Kd [16]: 0.31 nM | koff [16]: 0.000636 s⁻¹ | kon [16]: 2.04e+06 M⁻¹ s⁻¹ | IC50 [17]: 0.88 nM | EC50 [18]: 0.227 nM | Kd [19]: 0.49 nM | koff [19]: 0.00122 s⁻¹ | kon [19]: 2.47e+06 M⁻¹ s⁻¹ | EC50 [20]: 0.142 nM | EC50 [21]: 0.154 nM
B1: IL-1beta-mumAb (antibody, V domains shown)
VH: EVQLQQSGPELEKPGASVKISCKASGYSFTDYNMNWVRQSNGKSLEWIGNIDPYYGGTTYNQKFKDKATLTVDKSSSTAYMQLKSLTSEDSAVYYCAREGSPTRYYVMDYWGQGTSVTVSS
VL: DIQMTQSPASLSASVGETVTITCRASENIYSNLAWYQQKQGKSPQLLVYAATNLADGVPSRFSGSGSGTQFSLKINSLQPEDFGSYYCHHFYNTPWTFGGGTKLEIK
notes: Murine antibody; also called murine anti-human IL-1beta antibody
